Assays:
[1] = target: T1, ch-TOG(1517-1957) (UniProt Q14008 1517-1957); test: pull-down; His-NusA-TACC3(629-838) bound to Ni Sepharose beads and incubated with ch-TOG proteins; His-NusA as tag binding control; settings: both partners purified
T1 construct: source: recombinant, expressed and purified as stated in earlier work [11]

[2] = target: T2, His-NusA-ch-TOG(1517-1957) wild type (UniProt Q14008 1517-1957); test: pull-down; His-NusA-ch-TOG(1517-1957) wild type and mutant proteins bound to Ni Sepharose beads, then incubated with TACC3(629-838); SDS-PAGE and Western blot with anti-TACC3 TACC domain antibody; His-NusA as tag binding control; settings: both partners purified
T2 construct: held on Ni Sepharose beads by the His tag; source: recombinant, expressed and purified as stated in earlier work [11]; not shown: His, N-terminal, kept; NusA, N-terminal, kept
T2 sequence (Q14008 1517-1957): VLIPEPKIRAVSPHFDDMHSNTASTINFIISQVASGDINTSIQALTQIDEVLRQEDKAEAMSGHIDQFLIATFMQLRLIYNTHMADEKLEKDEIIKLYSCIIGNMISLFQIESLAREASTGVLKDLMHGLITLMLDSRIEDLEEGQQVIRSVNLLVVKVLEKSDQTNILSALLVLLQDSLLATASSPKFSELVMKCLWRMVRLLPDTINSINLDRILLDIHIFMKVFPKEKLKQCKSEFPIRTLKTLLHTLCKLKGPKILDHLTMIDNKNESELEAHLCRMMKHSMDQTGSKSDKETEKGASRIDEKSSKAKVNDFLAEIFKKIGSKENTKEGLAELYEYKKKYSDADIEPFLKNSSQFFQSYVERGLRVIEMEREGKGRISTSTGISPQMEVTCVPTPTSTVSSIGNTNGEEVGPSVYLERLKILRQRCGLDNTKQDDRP

T1 sequence (Q14008 1517-1957): as above

Binder	binding result [1]	binding result [2]
His-NusA-TACC3(629-838) (domain or fragment, Held on Ni Sepharose beads by the His tag; source: recombinant, expressed and purified as stated in earlier work [11]; not shown: His, N-terminal, kept; NusA, N-terminal, kept) not shown	binds	–
TACC3(629-838) (domain or fragment, source: recombinant, expressed and purified as stated in earlier work [11]) not shown	–	binds

Source: publication doi:10.1101/008359, “TACC3–ch-TOG track the growing tips of microtubules independently of clathrin and Aurora-A phosphorylation” (bioRxiv, 2014)
